Experimental data as given in IntAct's records for PubMed 14675752.

B1: Clathrin interactor 1 (Homo sapiens), Q14677 (parent)
chain: MLNMWKVRELVDKATNVVMNYSEIESKVREATNDDPWGPSGQLMGEIAKATFMYEQFPELMNMLWSRMLKDNKKNWRRVYKSLLLLAYLIRNGSERVVTSAREHIYDLRSLENYHFVDEHGKDQGINIRQKVKELVEFAQDDDRLREERKKAKKNKDKYVGVSSDSVGGFRYSERYDPEPKSKWDEEWDKNKSAFPFSDKLGELSDKIGSTIDDTISKFRRKDREDSPERCSDSDEEKKARRGRSPKGEFKDEEETVTTKHIHITQATETTTTRHKRTANPSKTIDLGAAAHYTGDKASPDQNASTHTPQSSVKTSVPSSKSSGDLVDLFDGTSQSTGGSADLFGGFADFGSAAASGSFPSQVTATSGNGDFGDWSAFNQAPSGPVASSGEFFGSASQPAVELVSGSQSALGPPPAASNSSDLFDLMGSSQATMTSSQSMNFSMMSTNTVGLGLPMSRSQNTDMVQKSVSKTLPSTWSDPSVNISLDNLLPGMQPSKPQQPSLNTMIQQQNMQQPMNVMTQSFGAVNLSSPSNMLPVRPQTNALIGGPMPMSMPNVMTGTMGMAPLGNTPMMNQSMMGMNMNIGMSAAGMGLTGTMGMGMPNIAMTSGTVQPKQDAFANFANFSK

Variants of: B1
Settings: with ap1g1_mouse Ap1g1, P22892
Chain of ap1g1_mouse Ap1g1, P22892 (P22892 whole entry): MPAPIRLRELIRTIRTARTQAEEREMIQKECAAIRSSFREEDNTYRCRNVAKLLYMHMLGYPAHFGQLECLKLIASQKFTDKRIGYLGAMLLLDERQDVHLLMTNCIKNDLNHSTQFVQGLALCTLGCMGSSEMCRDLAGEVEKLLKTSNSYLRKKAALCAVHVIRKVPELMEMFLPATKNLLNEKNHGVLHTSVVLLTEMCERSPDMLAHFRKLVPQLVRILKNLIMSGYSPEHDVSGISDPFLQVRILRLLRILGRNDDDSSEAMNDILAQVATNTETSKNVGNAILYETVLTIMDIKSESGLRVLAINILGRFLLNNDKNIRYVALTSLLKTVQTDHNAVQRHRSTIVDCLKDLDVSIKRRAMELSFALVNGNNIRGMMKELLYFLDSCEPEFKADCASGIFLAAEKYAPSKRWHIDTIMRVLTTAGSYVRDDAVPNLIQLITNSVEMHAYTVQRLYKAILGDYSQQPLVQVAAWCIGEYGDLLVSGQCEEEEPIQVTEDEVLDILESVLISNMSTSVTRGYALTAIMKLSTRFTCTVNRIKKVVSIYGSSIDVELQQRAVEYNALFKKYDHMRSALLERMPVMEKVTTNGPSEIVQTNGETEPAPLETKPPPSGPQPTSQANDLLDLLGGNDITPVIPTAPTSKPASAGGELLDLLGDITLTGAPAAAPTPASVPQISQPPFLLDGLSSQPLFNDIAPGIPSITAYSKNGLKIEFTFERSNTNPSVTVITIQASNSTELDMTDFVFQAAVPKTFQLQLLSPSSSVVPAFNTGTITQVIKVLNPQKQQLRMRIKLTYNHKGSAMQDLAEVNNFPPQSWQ

effect of a mutation on the interaction | Variant
decreasing interaction | W375A

Variants of: B1
Settings: with ap1g1_mouse Ap1g1, P22892
Remark: another data set of the same source

effect of a mutation on the interaction | Variant
decreasing interaction | F372A

Variants of: B1
Settings: with ap1g1_mouse Ap1g1, P22892
Remark: another data set of the same source

effect of a mutation on the interaction | Variant
decreasing interaction | D374A

Variants of: B1
Settings: with ap1g1_mouse Ap1g1, P22892
Remark: another data set of the same source

effect of a mutation on the interaction | Variant
decreasing interaction | G373R

Variants of: B1
Settings: with ap1g1_mouse Ap1g1, P22892
Remark: another data set of the same source

effect of a mutation on the interaction | Variant
decreasing interaction | F378A

Variants of: B1
Settings: with ap1g1_mouse Ap1g1, P22892
Remark: another data set of the same source

effect of a mutation on the interaction | Variant
decreasing interaction | D371A
